“Also recorded” adds a separate entry of the source. Read-outs that look alike come from different tables or passages of the source.
Columns and labels:
Kuramochi-mCh-NLS cells = test: Co-culture of chimeric Tim receptor T cells with Niraparib-treated Kuramochi cells (IncuCyte); assay type: cell-based, human
Description: Kuramochi cells expressing a mCherry-NLS plasmid were incubated for 20 hours with 25, 12.5, or 6.25 μM Niraparib. The next day the Niraparib concentration was reduced to 0.52 μM and co-cultures of primary human CD4+ and CD8+ T cells expressing chimeric Tim receptor construct 13A (TIM4 binding domain-CD28 transmembrane domain—CD28 costimulatory domain-CD3ζ signaling domain) (SEQ ID NO 162) were added to the Kuramochi culture. […] The number of Kuramochi cells expressing mCherry-NLS was monitored via IncuCyte.
Kuramochi cells expressing a mCherry-NLS plasmid were incubated for ˜20 hours with 1.56 μM Niraparib. The next day, media were removed from cells and replaced with fresh media with 0 μM Niraparib, and primary human CD4+ and CD8+ T cells expressing chimeric Tim receptor CTX140 (Tim4 binding domain-CD28 hinge-CD28 transmembrane-CD28 costimulatory domain-DAP12)(SEQ ID NO: 195) or CTX156 (tEGFR control) were added to the Kuramochi culture. The number of Kuramochi cells expressing mCherry-NLS was monitored via IncuCyte.
21500 Kuramochi ovarian cancer cells expressing an mCherry-NLS plasmid were plated on day 0.25, 12.5, or 6.25 μM Niraparib were added to cell culture ˜4 hours later. ˜20 hours after initial Niraparib dose, primary human CD4+ and CD8+ T cells expressing chimeric Tim receptor CTX137 (Tim4 binding domain-CD28 transmembrane-CD28 costimulatory domain-DAP12) (SEQ ID NO: 197) or CTX156 (tEGFR control) and maintenance dose of 0.52 μM Niraparib were added.
T cell transduction and culturing: CD4 and CD8 T cells were isolated from frozen healthy donor PBMCs using Miltenyi CD4+ and CD8+ isolation kits. CD4 and CD8 T cells were then mixed in a 1:1 ratio and incubated overnight in a flat bottom 24 well plate in OpTmizer medium supplemented with cell serum replacement, IL-Glutamine, GlutaMAX, and IL-2, IL-7, and IL-15 cytokines, and TransAct diluted 1:50. […] T cells were counted and supplemented with fresh medium approximately every two days thereafter. […]

[1] = low phosphatidylserine density, cited from earlier work

B1: CTX137: Tim4 binding domain-CD28 transmembrane-CD28 costimulatory domain-DAP12, SEQ ID NO: 197 (protein)
chain: MSKEPLILWLMIEFWWLYLTPVTSETVVTEVLGHRVTLPCLYSSWSHNSNSMCWGKDQCPYSGCKEALIRTDGMRVTSRKSAKYRLQGTIPRGDVSLTILNPSESDSGVYCCRIEVPGWFNDVKINVRLNLQRASTTTHRTATTTTRRTTTTSPTTTRQMTTTPAALPTTVVTTPDLTTGTPLQMTTIAVFTTANTCLSLTPSTLPEEATGLLTPEPSKEGPILTAESETVLPSDSWSSVESTSADTVLLTSKESKVWDLPSTSHVSMWKTSDSVSSPQPGASDTAVPEQNKTTKTGQMDGIPMSMKNEMPISQFWVLVVVGGVLACYSLLVTVAFIIFWVRSKRSRLLHSDYMNMTPRRPGPTRKHYQPYAPPRDFAAYRSYFLGRLVPRGRGAAEAATRKQRITETESPYQELQGQRSDVYSDLNTQRPYYK
modifications: Tim4 binding domain-CD28 transmembrane-CD28 costimulatory signaling domain-DAP12 signaling domain, amino acids 1-24 are signal peptide (CTX137)
Kuramochi cell numbers (Kuramochi-mCh-NLS cells; Niraparib 25 μM pre-incubation + 0.52 μM maintenance, control CTX156, FIG. 6): reduces Kuramochi cell numbers | number of Kuramochi cells in culture vs mock transduction control (Kuramochi-mCh-NLS cells; Niraparib 25, 12.5 or 6.25 μM pre-treatment ~20 h, then 0.52 μM, CD4+/CD8+ T cells, FIG. 4, FIG. 7): reduces Kuramochi cell numbers; also recorded: significantly reduce the number of Kuramochi cells

B2: CTX140: Tim4 binding domain-CD28 hinge-CD28 transmembrane-CD28 costimulatory domain-DAP12, SEQ ID NO: 195 (protein)
chain: MSKEPLILWLMIEFWWLYLTPVTSETVVTEVLGHRVTLPCLYSSWSHNSNSMCWGKDQCPYSGCKEALIRTDGMRVTSRKSAKYRLQGTIPRGDVSLTILNPSESDSGVYCCRIEVPGWFNDVKINVRLNLQRASTTTHRTATTTTRRTTTTSPTTTRQMTTTPAALPTTVVTTPDLTTGTPLQMTTIAVFTTANTCLSLTPSTLPEEATGLLTPEPSKEGPILTAESETVLPSDSWSSVESTSADTVLLTSKESKVWDLPSTSHVSMWKTSDSVSSPQPGASDTAVPEQNKTTKTGQMDGIPMSMKNEMPISQIEVMYPPPYLDNEKSNGTIIHVKGKHLCPSPLFPGPSKPFWVLVVVGGVLACYSLLVTVAFIIFWVRSKRSRLLHSDYMNMTPRRPGPTRKHYQPYAPPRDFAAYRSYFLGRLVPRGRGAAEAATRKQRITETESPYQELQGQRSDVYSDLNTQRPYYK
modifications: Tim4 binding domain-CD28 hinge-CD28 transmembrane-CD28 costimulatory signaling domain-DAP12 signaling domain, amino acids 1-24 are signal peptide(CTX140)
number of Kuramochi cells in culture vs mock transduction control (Kuramochi-mCh-NLS cells; Niraparib 1.56 μM pre-incubation ~20 h, then 0 μM, control CTX156, FIG. 5): reduces Kuramochi cell numbers; also recorded: significantly reduce the number of Kuramochi cells

B3: Tim-4: phosphatidylserine receptor typically expressed on antigen presenting cells (protein, UniProt Q96H15 25-378, looked up)
T-cell immunoglobulin and …: ETVVTEVLGHRVTLPCLYSSWSHNSNSMCWGKDQCPYSGCKEALIRTDGMRVTSRKSAKYRLQGTIPRGDVSLTILNPSESDSGVYCCRIEVPGWFNDVKINVRLNLQRASTTTHRTATTTTRRTTTTSPTTTRQMTTTPAALPTTVVTTPDLTTGTPLQMTTIAVFTTANTCLSLTPSTLPEEATGLLTPEPSKEGPILTAESETVLPSDSWSSVESTSADTVLLTSKESKVWDLPSTSHVSMWKTSDSVSSPQPGASDTAVPEQNKTTKTGQMDGIPMSMKNEMPISQLLMIIAPSLGFVLFALFVAFLLRGKLMETYCSQKHTRLDYIGDSKNVLNDVQHGREDEDGLFTL
binding at Low PtdSer [1]: Minimal | binding at Low PtdSer ([1]; listed as Tim4 binding domain): binds minimally
